The record followed here is paper PMC4638040.

Assay [1] has as its target T1, Carboxy-terminus of Hsc70-interacting protein (CHIP), His-tagged, wild type, Q9UNE7.
T1 chain: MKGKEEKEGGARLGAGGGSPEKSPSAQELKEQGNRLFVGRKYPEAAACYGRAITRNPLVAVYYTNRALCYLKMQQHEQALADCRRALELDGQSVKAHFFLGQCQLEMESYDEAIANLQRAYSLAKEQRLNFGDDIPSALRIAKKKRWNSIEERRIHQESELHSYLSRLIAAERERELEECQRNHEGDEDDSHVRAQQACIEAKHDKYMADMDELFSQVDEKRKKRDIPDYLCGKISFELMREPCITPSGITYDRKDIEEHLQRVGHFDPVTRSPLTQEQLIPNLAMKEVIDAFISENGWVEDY
The assay is described as follows: competition binding assay on microtitre wells (luminometer, anti-CHIP antibody). To be noted: chain shown with the change; signal is His-CHIP wt remaining bound to immobilized GST-IRF-1 in the presence of 5 uM peptide (highest dose); lower signal = more competition by the peptide …; parent: est. 0.05; read off a plot.

The target in assay [2] is T2, Carboxy-terminus of Hsc70-interacting protein (CHIP), untagged, K30A mutant (human), Q9UNE7.
T2 chain: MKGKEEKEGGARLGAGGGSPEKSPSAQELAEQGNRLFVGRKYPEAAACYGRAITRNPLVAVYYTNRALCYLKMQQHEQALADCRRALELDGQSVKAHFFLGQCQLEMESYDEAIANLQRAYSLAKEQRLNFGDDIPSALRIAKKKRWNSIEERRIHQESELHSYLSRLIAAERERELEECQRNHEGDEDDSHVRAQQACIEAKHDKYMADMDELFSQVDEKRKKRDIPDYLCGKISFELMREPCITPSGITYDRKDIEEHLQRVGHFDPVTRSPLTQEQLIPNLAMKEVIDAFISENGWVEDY
Briefly: SEC + other: dynamic light scattering; purified CHIP-K30A; supplemental Fig. S2C, S2D (not shown). The conditions noted are these: remark: other sources report otherwise.

For SGSGGAAAEEVD, in assay [1], the response was 1.2 RLU.

B1: Carboxy-terminus of Hsc70-interacting protein (CHIP), untagged, K30A mutant, Q9UNE7 1-303 (enzyme)
chain: MKGKEEKEGGARLGAGGGSPEKSPSAQELAEQGNRLFVGRKYPEAAACYGRAITRNPLVAVYYTNRALCYLKMQQHEQALADCRRALELDGQSVKAHFFLGQCQLEMESYDEAIANLQRAYSLAKEQRLNFGDDIPSALRIAKKKRWNSIEERRIHQESELHSYLSRLIAAERERELEECQRNHEGDEDDSHVRAQQACIEAKHDKYMADMDELFSQVDEKRKKRDIPDYLCGKISFELMREPCITPSGITYDRKDIEEHLQRVGHFDPVTRSPLTQEQLIPNLAMKEVIDAFISENGWVEDY
The term stoichiometry N denotes the number of molecules, sites or subunits per partner or assembly. In the case of B1, the stoichiometry N in assay [2] came out at 2.
